# Assays:
# [1] = biological target: T1, human ROR1 expressed on the cell surface (human, UniProt Q01973 30-937); experiment: flow cytometry on Mino cells (MCL), C2E3 IgG at 10 µg/mL, MFI of anti-ROR1 / MFI of 2nd Ab
# T1 construct: whole, on cells; On JeKo-1 and Mino cells and other cancer cell lines (endogenous) and on transfected CHO and MC38 cells; also called cell surface-expressed ROR1; CHO-human ROR1
# Procedure: (§1) For the cell lines, the binding to ROR1 was analyzed with FACS (FACSCalibur, BD Biosciences) by using the anti-ROR1 antibody of the present invention.
# (§2) Specifically, after disassociating each cell line and washing in PBS, the number of cells was counted and set as 2 ×10^5 cells/200 µl PBS, and then the clone C2E3 among ROR1 monoclonal antibodies prepared in Example 3 was treated in 10 µg/mL, and it was reacted at 4° C. for 1 hour. After reaction, cells were washed in PBS, and then the FITC-labeled constant region (Fc)-specific antibody (Goat anti-human IgG FITC conjugate, Fc specific, Sigma, F9512, concentration: 2.0 mg/ml) was suspended in 2 µl/1 ×10^5 cells/200 µl PBS, and it was reacted at 4° C. for 1 hour. After reaction, cells were washed in PBS, it was analyzed using a FACSCalibur device. The negative control group was treated only with the FITC-labeled constant region (Fc)-specific antibody. To compare the expression degrees of ROR1 among the cancer cell lines, the value of the result for the peak shift in the experimental group treated with the ROR1 monoclonal antibody (C2E3) of the present invention was divided by the result for the peak shift in the control group (Mean Fluorescence Intensity Ratio MFI Ratio: MFI of anti-ROR1/MFI of 2nd Ab).
# [2] = biological target: T1, human ROR1 expressed on the cell surface; experiment: flow cytometry on NCI-N87 cells (gastric cancer), C2E3 IgG at 10 µg/mL, MFI of anti-ROR1 / MFI of 2nd Ab
# Procedure: as §1, §2
# [3] = biological target: T1, human ROR1 expressed on the cell surface; experiment: flow cytometry on SNU-16 cells (gastric cancer), C2E3 IgG at 10 µg/mL, MFI of anti-ROR1 / MFI of 2nd Ab
# Procedure: as §1, §2
# [4] = biological target: T1, human ROR1 expressed on the cell surface; experiment: flow cytometry on Kasumi-2 cells (ALL), C2E3 IgG at 10 µg/mL, MFI of anti-ROR1 / MFI of 2nd Ab
# Procedure: as §1, §2
# [5] = biological target: T1, human ROR1 expressed on the cell surface; experiment: flow cytometry on HT29 cells (colon cancer), C2E3 IgG at 10 µg/mL, MFI of anti-ROR1 / MFI of 2nd Ab
# Procedure: as §1, §2
# [6] = biological target: T1, human ROR1 expressed on the cell surface; experiment: flow cytometry on HCC70 cells (breast cancer), C2E3 IgG at 10 µg/mL, MFI of anti-ROR1 / MFI of 2nd Ab
# Procedure: as §1, §2
# [7] = biological target: T1, human ROR1 expressed on the cell surface; experiment: flow cytometry on Jurkat cells (T cell leukemia), C2E3 IgG at 10 µg/mL, MFI of anti-ROR1 / MFI of 2nd Ab
# Procedure: as §1, §2
# [8] = biological target: T1, human ROR1 expressed on the cell surface; experiment: flow cytometry on SNU-1750 cells (gastric cancer), C2E3 IgG at 10 µg/mL, MFI of anti-ROR1 / MFI of 2nd Ab
# Procedure: as §1, §2
# [9] = biological target: T1, human ROR1 expressed on the cell surface; experiment: flow cytometry on H1437 cells (lung cancer), C2E3 IgG at 10 µg/mL, MFI of anti-ROR1 / MFI of 2nd Ab
# Procedure: as §1, §2
# [10] = biological target: T1, human ROR1 expressed on the cell surface; experiment: flow cytometry on JeKo-1 cells (MCL), C2E3 IgG at 10 µg/mL, MFI of anti-ROR1 / MFI of 2nd Ab
# Procedure: as §1, §2
# [11] = biological target: T1, human ROR1 expressed on the cell surface; experiment: flow cytometry on 697 cells (ALL), C2E3 IgG at 10 µg/mL, MFI of anti-ROR1 / MFI of 2nd Ab
# Procedure: as §1, §2
# T1 sequence (Q01973 30-937): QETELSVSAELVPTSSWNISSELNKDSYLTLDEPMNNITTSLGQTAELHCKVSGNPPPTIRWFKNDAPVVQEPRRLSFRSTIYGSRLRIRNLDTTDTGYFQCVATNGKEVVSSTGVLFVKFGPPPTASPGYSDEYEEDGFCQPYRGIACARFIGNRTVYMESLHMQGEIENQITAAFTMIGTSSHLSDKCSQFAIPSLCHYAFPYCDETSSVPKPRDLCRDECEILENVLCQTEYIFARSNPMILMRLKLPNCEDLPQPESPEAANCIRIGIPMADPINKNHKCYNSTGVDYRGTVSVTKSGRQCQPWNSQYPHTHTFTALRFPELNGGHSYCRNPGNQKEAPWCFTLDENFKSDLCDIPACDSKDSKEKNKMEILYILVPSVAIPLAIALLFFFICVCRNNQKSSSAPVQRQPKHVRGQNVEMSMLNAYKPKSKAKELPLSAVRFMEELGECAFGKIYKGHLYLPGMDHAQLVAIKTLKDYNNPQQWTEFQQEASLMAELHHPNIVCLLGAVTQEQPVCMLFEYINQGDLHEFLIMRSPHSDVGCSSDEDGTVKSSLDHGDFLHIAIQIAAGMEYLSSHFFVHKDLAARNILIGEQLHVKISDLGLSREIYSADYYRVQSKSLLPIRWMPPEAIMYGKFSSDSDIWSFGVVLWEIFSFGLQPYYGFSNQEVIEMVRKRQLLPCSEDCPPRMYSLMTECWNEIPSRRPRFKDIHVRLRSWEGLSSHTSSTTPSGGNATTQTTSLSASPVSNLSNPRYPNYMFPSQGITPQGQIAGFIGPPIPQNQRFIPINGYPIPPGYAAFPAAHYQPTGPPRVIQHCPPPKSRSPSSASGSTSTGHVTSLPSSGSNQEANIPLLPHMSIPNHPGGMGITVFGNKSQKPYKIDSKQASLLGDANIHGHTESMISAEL
binder,measurement,setting,value
"C2E3 anti-ROR1 IgG antibody (antibody, V domains shown) VH: EVQLLESGGGLVQPGGSLRLSCAASGFTFSNYAMSWVRQAPGKGLEWVSSISHNSGSTYYADSVKGRFTISRDNSKNTLYLQMNSLRAEDTAVYYCAKFISARKSLGRSYSNGMDVWGQGTLVTVSS VL: QSVLTQPPSASGTPGQRVTISCTGSSSNIGSNDVTWYQQLPGTAPKLLIYADSKRPSGVPDRFSGSKSGTSASLAISGLRSEDEADYYCGTWDYSLSGYVFGGGTKLTVLG",Mean Fold Ratio,[1],7.2
same,Mean Fold Ratio,[2],11.8
same,Mean Fold Ratio,[3],2.4
same,Mean Fold Ratio,[4],11.5
same,Mean Fold Ratio,[5],3.9
same,Mean Fold Ratio,[6],3.8
same,Mean Fold Ratio,[7],1.7
same,Mean Fold Ratio,[8],3.9
same,Mean Fold Ratio,[9],4.1
same,Mean Fold Ratio,[10],4
same,Mean Fold Ratio,[11],12

# Source: US12122830 (ABL BIO, dated 2024)
